Test system: apRAD51C-CTD-1 WT (Alvinella pompejana)
Test: fluorescence polarization
Conditions: FP: 20 mM HEPES pH 8, 80 mM NaCl, 2.5 mM ATP, 2.5 mM MgCl2, 1 mM DTT, 0.1 mg/mL BSA, 10 nM DNA, 37 C 20 min, EMSA: 20 mM Tris pH 8.0, 150 mM KCl, 4 C 15 min

## TTTTTTTTTTTTTTTTTTTT [poly-20dT]
  Kd: 1250 nM
